According to article PMC7688234, “Salt Stress Response of Sulfolobus acidocaldarius Involves Complex Trehalose Metabolism Utilizing a Novel Trehalose-6-Phosphate Synthase (TPS)/Trehalose-6-Phosphate Phosphatase (TPP) Pathway” (Applied and Environmental Microbiology, 2020):

Experiments:
[1] = substrate: O=c1ccn([C@@H]2O[C@H](CO[P@@](=O)(O)O[P@@](=O)(O)O[C@H]3O[C@H](CO)[C@@H](O)[C@H](O)[C@H]3O)[C@@H](O)[C@H]2O)c(=O)[nH]1; test: purified protein; type: biochemical, Sulfolobus acidocaldarius; settings: glycosyl donor, G6P as acceptor (standard 10 mM), 10 mM MgCl2, 50 mM HEPES-KOH pH 7, 55°C
[2] = substrate: Nc1ncnc2c1ncn2[C@@H]1O[C@H](COP(=O)(O)OP(=O)(O)O[C@H]2O[C@H](CO)[C@@H](O)[C@H](O)[C@H]2O)[C@@H](O)[C@H]1O; test: purified protein; type: biochemical, Sulfolobus acidocaldarius; settings: glycosyl donor, G6P as acceptor (standard 10 mM), 10 mM MgCl2, 50 mM HEPES-KOH pH 7, 55°C
[3] = biological target: the molecule itself; test: SEC; gel filtration under native conditions against SDS-PAGE under denaturing conditions; Superdex 200 HiLoad 26/60, 30 mM Tris-300 mM NaCl, pH 7

B1: trehalose-6-phosphate synthase (TPS, Saci_1249) of Sulfolobus acidocaldarius (enzyme, UniProt Q4J9D6 1-444, looked up)
chain: MFSVSISTQTPPVRFRYTYRDLMDKYGFFELPIELSQLDSSDYYFSVGGVPKMMLSLINKFNKVRWVSLGPGYPPQVKYGDQRLFDFIDLDPENLKNYTRYKEGIYNESHGIEKYEIKPSEYISYADYNWISAKKLLEFHNDSDVYFINDFQLLLVGGIIGPSAPAILWYHIPFVPENLSPRIRDFIVRSFEGYDYVILSTKRDLEGLLRIGAKINARQVYPFIDTSTLRRGSKGEVDKVKSKYNIGKDEKVITVVARMDPMKSQDVAIMALKKIKESNAKLLLVGNGSFTSGALGTNKAGNWVRKLQSLASNLGVDKKVVFTGHVSDEELNAIYEASDVIVLPSRIEGFGLVVCEGWFFEKPAIVSSGAGVSELVIDGSNGFVFKSGNYEELAEKIDIVLKEPDKYSRLSRDTVNKCNVEYAFNQLKDIFAQAMKDYGKNVNL
notes: Trehalose-6-phosphate synthase TPS (Saci_1249), Sulfolobus acidocaldarius; gene of 1,335 bp encoding 444 amino acids, calculated mass 50.3 kDa; amplified from genomic DNA with primers that run from the start codon to the stop codon, cloned into pET15b; The N-terminal His tag comes from pET15b; also called GT4-like TPS; source: E. coli BL21(DE3)-CodonPlus, purified …
B1 was tested, and the Km [1] was 3800 µM, the kcat [1] was 4.9 s⁻¹ and the Km [2] was 1800 µM. The “stoichiometry N” value [3] was 2.
